Changes are numbered by the printed parent chain. “And” between values parts separate entries of the source, which are not always exact repeats. Equal entries are not always repeated.
B1: mAb13458 (antibody, V domains shown)
VH: EVQLVESGGGLVQPGRSLRLSCAASGFTFDDYAMHWVRQAPGKGLEWVSGISWNSGSIGYADSVKGRFTISRDNAKNSLYLQMNSLRAEDTALYYCAKDIGITTPYWGQGTLVTVSS
VL: AIQMTQSPSSLSASVGDRVTITCRASQDIRNDLGWYQQKPGKAPKLLIYSASSLQTGVPSRFSGSGSGTDFTLTISSLHPEDFATYYCLQDYWYTWTFGQGTKVEIKR
B2: mAb13459 (antibody, V domains shown)
VH: B1 VH
VL: B1 VL with W93N, T95V
B3: mAb14230 (antibody, V domains shown)
VH: EVQLVESGGGLIQPGRSLRLSCAASGFTFDDYAMHWVRQAPGKGLEWVSGISWNSVSIDYADSVKGRFTISRDNAKNSLYLQMTSLTVEDTALYYCAKAFGYETLTGSDYFAYWGPGTLVTVSS
VL: EIVLTQSPGTLSLSPGERATLSCRASQTVISTYLAWYQQKPGQSPRLLIYGASSRATGIPDRFSGSGSGTDFTLTISRLEPEDFAVYYCQQYGSSPQLTFGGGTKVEIKR
B4: mAb14232 (antibody, V domains shown)
VH: QITLKESGPTLVKPTQTLTLTCTFSGFSLSASGVGVGWIRQPPGKALEWLALIYWDDDKRYSPSLKSRLTITKDTSKNQVVLTMTNMDPVDTATYYCAQHKVATIFDYWGQGTLVTVSS
VL: QSALTQPPSASGSPGQSVTISCTATSSDVGNYNYVSWYQQHPGKAPKLMIYEVTKRPSGVPDRFSGSKSGNTASLTVSGLQAEDEADYYCSSYAGSWGVFGGGTKLTVLG
B5: mAb14234 (antibody, V domains shown)
VH: QVQLVESGGGVVQPGRSLRLSCAASGFTFSSYGIHWVRQAPGKGLEWVAIIWYDGSEKYYADSVKGRFTISRDNSKNTLFLQMNSLEAEDTAVYYCARGPDLLTGYYNYFYYGMDVWGQGTTVTVSS
VL: QSVLTQPPSVSGAPGQRVTISCTGSSSNIGIGYDVHWYQQLPGTVPKLLIYGNTNRPSGVPDRFSGSKSGTSASLAITGLQAEDEADYYCQSYDSSLSSYVFGTGTKVTVLG
B6: mAb14235 (antibody, V domains shown)
VH: QITLKESGPTLVKPTQTLTLTCTFSGFSLNTGGVGVGWIRQPPGNALEWLALIYWDDDKRYNPSLKTRLTISKDTSKNQVVLTMTNMDPVDTATYFCAHLTIAVIVDFWGQGTLVTVSS
VL: QSALTQPASVSGSPGQSITISCTATSSDVGTYNYVSWFQHHPGKAPKLMIYEVTNRPSGVSNRFSGSKSGNTASLTISGLQAEDEADYYCSSYTTTSIVFGGGTKLTVLG
B7: mAb14247 (antibody, V domains shown)
VH: B4 VH with A31T, G33A, V80L, M87V, Q99H, K101T, V102I, A103Q, T104L
VL: QSALTQPASVSGSPGQSITISCTATSSDVGNYNYVSWYQQHPGKAPKLMIYEVSNRPSGVSNRFSGSKSGNTASLTISGLQAEDEADYYCSSYTSSSTPLVFGGGTKLTVLG
B8: mAb14255 (antibody, V domains shown)
VH: QVQLQESGPGLVKPSETLSLTCTVSGGSISGYYWSWIRQPPGKGLDWIGYIYYRGNTNYNPSLKSRVTISVDTSNNQFSLKLSSVTAADTAVYYCARYGEGYGDASGYHFDYWGQGTLVTVSS
VL: QSALTQPASVSGSPGQSITISCTGTSSDVGSYNLVSWYQQHPGKAPKLMIYEDSKRPSGVANPFSGSKSGNTASLTISGLQAEDEADYYCSSYAGSSTWVFGGGTKLTVLG
B9: mAb14256 (antibody, V domains shown)
VH: QVQLQESGPGLVKPSETLSLTCTVSGGSISSHYWSWIRQPPGKGLEWIGYIYYSGSSNYNPSLKSRVTISVDTSKNQFSLKLNSVTAADTAVYYCARHYDILTGFDWFDPWGQGTLVTVSS
VL: QSVLTQPPSVSGAPGQRVTISCTGSSSNIGTHYDVHWYQQLPGTAPKLLIYGNSNRPSGVPDRFSGSKSGTSASLAITGLQAEDEADYYCQSFDNSLTAPYVFGTGTKVTVLG
B10: mAb14257 (antibody, V domains shown)
VH: EVQLVESGGGLVQPGGSLRLSCAASGFTVSRSYMNWVRQAPGKGLEWVSVVFTGGTTKHTDSVKGRFTISRDNSMNTLYLQMNSLRPEDTAVYYCARVAIVETTGAFDIWGQGTMVTVSS
VL: QSVLTQPPSVSGAPGQRVTISCTGTSSNIGADFDVHWYQQFPGTAPKLLIYGHTNRPSGIPDRFSGSKSGTSASLAITGLQAEDEADYYCQSYDSSLSGSVVFGGGTKLTVLG
B11: mAb14258 (antibody, V domains shown)
VH: QLQLQESGPGLVKPSETLSLICTGSGDSISSSHYYWGWIRQPPGKGLEWIGSTYFSGSTYYNPSLKSRVSISVDTSKNQVSLKLISVTAADTAVYYCAREMGATLGDYWGPGTLVTVSS
VL: QSVLTQPPSASGTPGQRVTISCSGSSSNIGNNYVYWYQQFPGTTPRLLIYRNNERPSGVPDRFSGSKSGTSASLVISGLRSEDEADYYCAAWDDSLSAHYVFGTGTKVTVLG
B12: mAb14280 (antibody, V domains shown)
VH: QVQLVQSGAEVKKPGASVRVSCKASGYTFTGNYIHWVRQAPGQGLEWMAWINPNSGGKNYAQKFQGRVTLTRDTSVNTAYMELSRLRSDDTAMYYCARDVNYNILTGPGGLWGQGTLVTVSS
VL: QSALTQPPSASGSPGQSVTISCTGTSSDVGGYNFVSWYQQHPGKAPKLMIYEVSKRPSGVPDRFSGSKSGNTASLTVSGLQAEDEADYYCSSYAGSNNFVFGTGTKVTVLG
B13: mAb14281 (antibody, V domains shown)
VH: QVQLVQSGADVKKPGASVKVSCKTSGYIFTGYYIHWVRQAPGQGLEWMGWINPNSGGTNSAQKFQGRVTMTRDTSISTVYMELSRLRSDDTAVYYCAKSNSFSVLDYNFDYWGQGTLVTVSS
VL: SSELTQDPAVSVALGQTVRITCQGDSLRSYYASWYQQKPGQAPVLVIYDKNNRPSGIPDRFSGSSSGNTASLTITGAQAEDEADYYCNSRDSSRNHLVVFGGGTKLTVLG

target: SARS-CoV-2 RBD.mmh (Spike amino acids Arg319-Phe541 with C-terminal myc-myc-6-Histidine tag) (SARS-CoV-2, UniProt P0DTC2 319-541); test: not given

Binder | IC50
B1 | 0.873 nM
B2 | 4.43 nM
B3 | 9.97 nM
B4 | 18 nM
B5 | 4.62 nM
B6 | 0.234 nM
B7 | 0.446 nM
B8 | 0.157 nM
B9 | 0.48 nM
B10 | 0.365 nM
B11 | 0.121 nM
B12 | 1.74 nM
B13 | 0.397 nM

target: T1, SARS-COV-2 RBD-MMH (SARS-COV-2 RBD extracellular domain with C-terminal myc-myc-hexahistidine tag) (SARS-CoV-2); test: not given

Binder | koff | t½ at pH 6.0 | t½ at pH 7.4
B1 | 0.00199 s⁻¹ | 5.8 min | 7.2 min
B2 | 0.00229 s⁻¹ and 0.00239 s⁻¹ | 4.8 min | 5.1 min
B3 | 0.00797 s⁻¹ | 1.4 min | 1.5 min
B4 | 0.0124 s⁻¹ | 0.9 min | 0.4 min
B5 | 0.00143 s⁻¹ | 8.1 min | 5.2 min
B6 | 0.00114 s⁻¹ | 10.1 min | 7.8 min
B7 | 0.00167 s⁻¹ | 6.9 min | 7.3 min
B8 | 0.00513 s⁻¹ | 2.3 min | 2.3 min
B9 | 0.00955 s⁻¹ | 1.2 min | 1 min
B10 | 0.00842 s⁻¹ | 1.4 min | 1.5 min
B11 | – | 21.1 min | 5.4 min
B12 | 0.019 s⁻¹ | 0.6 min | 0.5 min
B13 | 0.00734 s⁻¹ | 1.6 min | 1.8 min

target: T1, SARS-COV-2 RBD-MMH (SARS-COV-2 RBD …); test: SPR 37C, mAb captured, pH 7.4 vs pH 6.0

Binder | t½ Ratio of pH 7.4 to pH 6.0
B1 | 1.2
B2 | 1.1
B3 | 1.1
B4 | 0.4
B5 | 0.6
B6 | 0.8
B7 | 1.1
B8 | 1
B9 | 0.8
B10 | 1.1
B11 | 0.3
B12 | 0.8
B13 | 1.1

From patent US20260069689A1 (Regeneron, published 2026)
